Measured values as given in US10081667B2, “Composition and method for therapeutic agent delivery during pregnancy” (University of Mississippi Medical Center, priority 2013, dated 2018).

B1: SynB1-ELP-p50: SynB1 peptide fused to N-terminus of ELP (SEQ ID NO: 4), p50 peptide at the C-terminus; SEQ ID NO: 15 (protein)
chain: MRGGRLSYSRRRFSTSTGRGCGPGVGVPGAGVPGGGVPGAGVPGGGVPGAGVPGGGVPGAGVPGGGVPGAGVPGGGVPGAGVPGGGVPGAGVPGGGVPGAGVPGVGVPGAGVPGGGVPGAGVPGGGVPGAGVPGGGVPGAGVPGGGVPGAGVPGGGVPGAGVPGGGVPGAGVPGGGVPGAGVPGVGVPGAGVPGGGVPGAGVPGGGVPGAGVPGGGVPGAGVPGGGVPGAGVPGGGVPGAGVPGGGVPGAGVPGGGVPGAGVPGVGVPGAGVPGGGVPGAGVPGGGVPGAGVPGGGVPGAGVPGGGVPGAGVPGGGVPGAGVPGGGVPGAGVPGGGVPGAGVPGVGVPGAGVPGGGVPGAGVPGGGVPGAGVPGGGVPGAGVPGGGVPGAGVPGGGVPGAGVPGGGVPGAGVPGGGVPGAGVPGVGVPGAGVPGGGVPGAGVPGGGVPGAGVPGGGVPGAGVPGGGVPGAGVPGGGVPGAGVPGGGVPGAGVPGGGVPGAGVPGVGVPGAGVPGGGVPGAGVPGGGVPGAGVPGGGVPGAGVPGGGVPGAGVPGGGVPGAGVPGGGVPGAGVPGGGVPGAGVPGVGVPGAGVPGGGVPGAGVPGGGVPGAGVPGGGVPGAGVPGGGVPGAGVPGGGVPGAGVPGGGVPGAGVPGGGVPGAGVPGVGVPGAGVPGGGVPGAGVPGGGVPGAGVPGGGVPGAGVPGGGVPGAGVPGGGVPGAGVPGGGVPGAGVPGGGVPGAGVPGVGVPGAGVPGGGVPGAGVPGGGVPGAGVPGGGVPGAGVPGGGVPGAGVPGGGVPGAGVPGGGVPGAGVPGGGVPGAGVPGWPGSGGVQRKRQKLMP
modifications: synthetic SynB1-ELP-p50 sequence
B2: ELP-VEGF: ELP sequence (SEQ ID NO: 4) fused to a C-terminal VEGF121 sequence, SEQ ID NO: 14; 73 kDa protein (protein)
chain: MSKGPGVGVPGAGVPGGGVPGAGVPGGGVPGAGVPGGGVPGAGVPGGGVPGAGVPGGGVPGAGVPGGGVPGAGVPGGGVPGAGVPGVGVPGAGVPGGGVPGAGVPGGGVPGAGVPGGGVPGAGVPGGGVPGAGVPGGGVPGAGVPGGGVPGAGVPGGGVPGAGVPGVGVPGAGVPGGGVPGAGVPGGGVPGAGVPGGGVPGAGVPGGGVPGAGVPGGGVPGAGVPGGGVPGAGVPGGGVPGAGVPGVGVPGAGVPGGGVPGAGVPGGGVPGAGVPGGGVPGAGVPGGGVPGAGVPGGGVPGAGVPGGGVPGAGVPGGGVPGAGVPGVGVPGAGVPGGGVPGAGVPGGGVPGAGVPGGGVPGAGVPGGGVPGAGVPGGGVPGAGVPGGGVPGAGVPGGGVPGAGVPGVGVPGAGVPGGGVPGAGVPGGGVPGAGVPGGGVPGAGVPGGGVPGAGVPGGGVPGAGVPGGGVPGAGVPGGGVPGAGVPGVGVPGAGVPGGGVPGAGVPGGGVPGAGVPGGGVPGAGVPGGGVPGAGVPGGGVPGAGVPGGGVPGAGVPGGGVPGAGVPGVGVPGAGVPGGGVPGAGVPGGGVPGAGVPGGGVPGAGVPGGGVPGAGVPGGGVPGAGVPGGGVPGAGVPGGGVPGAGVPGVGVPGAGVPGGGVPGAGVPGGGVPGAGVPGGGVPGAGVPGGGVPGAGVPGGGVPGAGVPGGGVPGAGVPGGGVPGAGVPGVGVPGAGVPGGGVPGAGVPGGGVPGAGVPGGGVPGAGVPGGGVPGAGVPGGGVPGAGVPGGGVPGAGVPGGGVPGAGVPGWPGSGAPMAEGGGQNHHEVVKFMDVYQRSYCHPIETLVDIFQEYPDEIEYIFKPSCVPLMRCGGCCNDEGLECVPTEESNITMQIMRIKPHQGQHIGEMSFLQHNKCECRPKKDRARQEKCDKPRR
modifications: synthetic ELP-VEGF sequences
notes: 73 kDa protein

Experiments:
[1] = rat, in vivo
endothelin-1 = assay: Endothelin-1 release by HUVECs, ELISA; type: cell-based, human
Experimental: FIG. 15 includes a graph illustrating the inhibition of endothelin release by SynB1-ELP-p50. HUVECs growing in 24-well plates were treated with 50 μM SynB1-ELP or SynB1-ELP-p50 overnight, then 50 or 100 ng/mL […]. Cells were incubated overnight, and culture media was collected and frozen.
TNFα stimulation also leads to the secretion of the vasoactive peptide endothelin-1 by HUVECs. This endothelin release contributes to the hypertension associated with the pro-inflammatory environment in preeclampsia.

NF-κB = assay: In vitro NF-κB activation assay: nuclear localization of NF-κB in TNFα-stimulated HUVECs; type: cell-based, human; details: 20 μM pretreatment 24 h, TNFα 1 h
Experimental: FIG. 14 includes images and a bar graph illustrating inhibition of NF-κB activation with an ELP-delivered p50 peptide. FIG. 14A. Localization of NF-κB in HUVEC cells before and after TNFα stimulation. HUVECs were treated with SynB1-ELP control or SynB1-ELP-p50 (20 μM) for 24 h. Cells were then stimulated for 1 h with TNFα, and NF-κB localization was determined by immunostaining for the p65 subunit (green) and for nuclei with DAPI (blue). FIG. 14B. The nuclear cytoplasmic ratio of NF-κB staining was determined under each treatment condition. Data represent the mean of 30-60 cells per treatment and are averaged over three experiments.
This investigation has developed an ELP-fused peptide inhibitor of activated NF-κB. NF-κB activation upon extracellular signaling is mediated by phosphorylation and release of the natural inhibitor I-κB from the NF-κB p50/p65 heterodimer. I-κB release exposes a nuclear localization sequence (NLS) on the p50 subunit of NF-κB, and once exposed, this NLS mediates nuclear import of NF-κB. Once inside the nucleus, NF-κB binds to response elements on its target genes and regulates gene expression. […] Stimulation of cultured HUVECs with TNF-α leads to rapid activation of the NF-κB pathway, and this can be detected by monitoring nuclear localization of NF-κB (FIG. 14A, left panel).

[2] = tested on: human umbilical vein endothelial cells (HUVECs); assay: HUVEC proliferation, MTS cell proliferation assay; type: cell-based; details: 72 h exposure
Experimental: FIG. 9 is a bar graph showing ELP-VEGF stimulation of HUVEC proliferation. HUVEC cell proliferation was determined after 72 h exposure to ELP, VEGF, or ELP-VEGF at the indicated concentrations using the MTS cell proliferation assay.
Proliferation of human umbilical vein endothelial cells (HUVECs) is stimulated when the cell are exposed to VEGF.

[3] = tested on: rat model of preeclampsia; assay: Blood pressure in the reduced uterine perfusion (RUPP) rat model of preeclampsia; type: in vivo, rats; details: 1 mg/kg/day IP minipump GD14 to GD19, measured GD19
Experimental: FIG. 13 is a bar graph showing effect of ELP-VEGF on blood pressure in the reduced uterine perfusion model. A study was conducted in pregnant rats subjected to surgical reduction of uterine blood flow (RUPP) on gestational day 14 (GD14). ELP-VEGF or saline control was administered by continuous infusion via IP minipump from GD14 to GD19 at a dose of 1 mg/kg/day. Data represent the mean arterial pressure as assessed by indwelling carotid catheters on GD19. Individual animal data are indicated by the points.
Whether ELP-VEGF was effective for lowering blood pressure in a rat model of preeclampsia is texted next. Pregnant rats at gestational day 14 (GD14) were subjected to surgery to reduce ale blood flow to the placentas. It has previously been shown that this model, achieved by partially restricting the ovarian arteries and the dorsal aorta, results in a preeclampsia-like syndrome in the rat. The effects mirror human preeclampsia in that the rats develop hypertension, proteinuria, reduced renal function, fetal growth restriction, and some fetal loss. […] The hypertension associated with this model can be seen in FIG. 13, where the mean arterial pressure increased from about 105 mmHg in normal pregnant rats on GD19 to over 120 mmHg in the preeclampsia model as measured by a pressure transducer inserted into a carotid arterial catheter.

[4] = ELP-VEGF pharmacokinetics and biodistribution in mice after bolus IV; type: in vivo, C57/B16 mice
Experimental: FIG. 12 includes graphs showing ELP-VEGF pharmacokinetics and biodistribution. FIG. 12A. Fluorescently labeled free VEGF or ELP-VEGF were administered by IV injection to C57/B16 mice. Plasma levels were determined by direct fluorescence quantitation and fit to a two-compartment pharmacokinetic model. FIG. 12B. […] FIG. 12D.
In addition to examining the ELP-VEGF activity in vitro, the pharmacokinetics (PK) and biodistribution of ELP-VEGF in comparison to free VEGF121 is also determined. Both free VEGF121 and ELP-VEGF were fluorescently labeled, and their PK and biodistribution were determined in mice after bolus intravenous administration. […] This is consistent with other reports of approximately a 30 minute half-life for recombinant VEGF in humans. ELP-VEGF cleared more slowly than free VEGF121 (FIG. 12A). […] Four hours after the infusion, the biodistribution was determined by ex vivo whole organ fluorescence imaging.

Molecule	entry into fetal circulation / pups [1]	terminal half-life (in words) [1]	endothelin release from unstimulated HUVECs (endothelin-1; 50 μM)	endothelin release from TNFα-stimulated HUVECs (endothelin-1; 50 μM pre-treatment overnight)	nuclear translocation of NF-κB after TNF-α stimulation (NF-κB)	stimulation of HUVEC proliferation [2]	mean arterial pressure [3]	fluorescence in the urine at the end of the experiment [4]	plasma clearance rate relative to free VEGF121 ([4]; IV)	kidney deposition relative to free VEGF121 ([4]; four hours after the infusion)	organ accumulation, ex vivo whole organ fluorescence imaging ([4]; four hours after the infusion)
B1	effectively prevents the peptide from entering the fetal circulation	greater than two hours	decreases the endothelin release from unstimulated HUVECs	the endothelin release is completely blocked	completely blocks this nuclear translocation of NF-κB						
B2						stimulated HUVEC proliferation with equal potency	effectively lowered the blood pressure of the preeclampsia-induced rats to near normal levels	less fluorescence detectable in the urine	about half the rate of free VEGF121	significantly lower than for free VEGF121	accumulated more highly in the spleen and liver than did free VEGF121
